Test results: patent US20260258115A1 (MAPP BIOPHARMACEUTICAL, published 2026)
Positions count from the first letter of the chain named.

B1: ADI-19465 (antibody, V domains shown)
VH: EVQLVESGGGLVKPGGSLRLSCAASGFTFSSYSMNWVRQAPGKGLEWVSSISSSSSYIYYADSVKGRFTISRDNAKNSLYLQMNSLRAEDTAVYYCAREGSSSWYYFDYWGQGTLVTVSS
VL: QSVVTQPPSVSGAPGQRVTISCTGSSSNIGAGYDVHWYQQLPGTAPKLLIYGNSNRPSGVPDRFSGSKSGTSASLAITGLQAEDEADYYCQSYDSSLSGPWVFGGGTKLTVL
notes: full-length IgG; also called Ab 170
B2: ADI-19507 (antibody, V domains shown)
VH: EVQLVESGGGLVKPGGSLRLSCAASGFTFSSYSMNWVRQAPGKGLEWVSSISSSSSYIYYADSVKGRFTISRDNAKNSLYLQMNSLRAEDTAVYYCAREVLTGDYLGWFDPWGQGTLVTVSS
VL: QSVVTQPPSVSGAPGQRVTISCTGSSSNIGAGYDVHWYQQLPGTAPKLLIYGNSNRPSGVPDRFSGSKSGTSASLAITGLQAEDEADYYCQSYDSSHWVFGGGTKLTVL
notes: full-length IgG
B3: ADI-24811 (antibody, V domains shown)
VH: QVQLVQSGAEVKKPGASVKVSCKASGYTFTSYDINWVRQATGQGLEWMGWMNPNSGNTGYAQKFQGRVTMTRNTSISTAYMELSSLRSEDTAVYYCARGLPGQWLEYYFDYWGQGTLVTVSS
VL: SYVLTQPPSVSVAPGKTARITCGGNNIGSKSVHWYQQKPGQAPVLVIYYDSDRPSGIPERFSGSNSGNTATLTISRVEAGDEADYYCQVWDSSSDHPVFGGGTKVTVL
notes: full-length IgG
B4: ADI-24815 (antibody, V domains shown)
VH: EVQLVESGGGLVKPGGSLRLSCAASGFTFSSYSMNWVRQAPGKGLEWVSSISSSSSYIYYADSVKGRFTISRDNAKNSLYLQMNSLRAEDTAVYYCAREGYSSSSGYYYMDVWGKGTTVTVSS
VL: QSVLTQPPSVSGAPGQRVTISCTGSSSNIGAGYDVHWYQQLPGTAPKLLIYGNSNRPSGVPDRFSGSKSGTSASLAITGLQAEDEADYYCQSYDSSLSGSVFGTGTKVTVL
notes: full-length IgG
B5: ADI-24820 (antibody, V domains shown)
VH: QVQLVQSGAEVKKPGSSVKVSCKASGGTFSSYTISWVRQAPGQGLEWMGRIIPILGIANYAQKFQGRVTITADKSTSTAYMELSSLRSEDTAVYYCARDPPYLRAFDIWGQGTTVTVSS
VL: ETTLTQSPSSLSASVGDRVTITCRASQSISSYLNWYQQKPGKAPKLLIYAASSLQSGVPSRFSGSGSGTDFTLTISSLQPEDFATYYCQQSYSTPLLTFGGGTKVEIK
notes: full-length IgG
B6: ADI-24826 (antibody, V domains shown)
VH: B1 VH with E99D, G100R, S101G, S102Y, S103G, W104S, Y105G, Y106A, F107L
VL: QPVLTQPASVSGSPGQSITISCTGTSSDVGGYNYVSWYQQHPGKAPKLMIYDVSNRPSGVSNRFSGSKSGNTASLTISGLQAEDEADYYCSSYTSSSTVVFGGGTKLTVL
notes: full-length IgG; also called Ab 388
B7: ADI-24833 (antibody, V domains shown)
VH: QVQLVESGGGLVKPGGSLRLSCAASGFTFSSYSMNWVRQAPGKGLEWVSSISSSSSYIYYADSVKGRFTISRDNAKNSLYLQMNSLRAEDTAVYYCARALTYYYDSSGHGADYWGQGTLVTVSS
VL: QSVVTQPPSVSGAPGQRVTISCTGSSSNIGAGYDVHWYQQLPGTAPKLLIYGNSNRPSGVPDRFSGSKSGTSASLAITGLQAEDEADYYCQSYDSSLSVVFGGGTKLTVL
notes: full-length IgG
B8: ADI-24836 (antibody, V domains shown)
VH: EVQLLESGGGLVQPGRSLRLSCAASGFTFDDYAMHWVRQAPGKGLEWVSGISWNSGSIGYADSVKGRFTISRDNAKNSLYLQMNSLRAEDTALYYCAKDLRGGTYYYYGMDVWGQGTTVTVSS
VL: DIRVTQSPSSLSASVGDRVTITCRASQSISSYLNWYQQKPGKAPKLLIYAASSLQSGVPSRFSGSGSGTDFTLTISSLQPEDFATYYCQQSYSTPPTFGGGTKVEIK
notes: full-length IgG
B9: ADI-24840 (antibody, V domains shown)
VH: EVQLLESGGGLVKPGGSLRLSCAASGFTFSSYSMNWVRQAPGKGLEWVSSISSSSSYIYYADSVKGRFTISRDNAKNSLYLQMNSLRAEDTAVYYCARDQVYSYGYYFDYWGQGTLVTVSS
VL: QSVLAQPPSVSGAPGQRVTISCTGSSSNIGAGYDVHWYQQLPGTAPKLLIYGNSNRPSGVPDRFSGSKSGTSASLAITGLQAEDEADYYCQSYDSSLSGSHVVFGGGTKLTVL
notes: full-length IgG
B10: ADI-24847 (antibody, V domains shown)
VH: EVQLVESGGGLVKPGGSLRLSCAASGFTFSSYSMNWVRQAPGKGLEWVSSISSSSNYIYYADSVKGRFTISRDNAKNSLYLQMNSLRAEDTAVYYCARDRIAAYTFDYWGQGTLVTVSS
VL: B7 VL with S98P, V99Y, G103T, L107V
notes: full-length IgG
B11: ADI-25472 (antibody, V domains shown)
VH: B1 VH with E99D, G100D
VL: B4 VL with S100Y
notes: full-length IgG
B12: ADI-22771 (antibody, V domains shown)
VH: B1 VH with E99D, G100Y, S103G
VL: B4 VL with S2P, T104G, V108L
notes: full-length IgG; also called Ab 350
B13: ADI-24848 (antibody, V domains shown)
VH: B1 VH with E99D, G100T, S101V, S102V, S103A, W104G, Y105I
VL: B4 VL with S100V, T104G, V108L
notes: full-length IgG
B14: ADI-24855 (antibody, V domains shown)
VH: EVQLVESGGGLVKPGGSLRLSCAASGFTFSSYSMNWVRQAPGKGLEWVSSISSSSSYIYYADSVKGRFTISRDNAKNSLYLQMNSLRAEDTAVYYCARRYCTNGVCYDAFDIWGQGTMVTVSS
VL: B7 VL with V99Y, G103T, L107V
notes: full-length IgG
B15: ADI-24856 (antibody, V domains shown)
VH: QVQLVQSGAEVKKPGASVKVSCKASGYTFTSYGISWVRQAPGQGLEWMGWISAYNGNTNYAQKLQGRVTMTTDTSTSTAYMELRSLRSDDTAVYYCARAGIVVVPKYYYYMDVWGKGTTVTVSS
VL: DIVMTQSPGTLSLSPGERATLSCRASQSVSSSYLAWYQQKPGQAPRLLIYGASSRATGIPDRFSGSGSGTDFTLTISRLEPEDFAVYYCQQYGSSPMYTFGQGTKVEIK
notes: full-length IgG
B16: ADI-24861 (antibody, V domains shown)
VH: QVQLVQSGGGLVKPGGSLRLSCAASGFTFSSYSMNWVRQAPGKGLEWVSSISGGSSYIYYADSVKGRFTISRDNAKNSLYLQMNSLRAEDTAVYYCAREAYYYDSSGLKWFDPWGQGTLVTVSS
VL: B7 VL with V4L, S98G, V99W
notes: full-length IgG
B17: ADI-19467 (antibody, V domains shown)
VH: EVQLVESGGGLVKPGGSLRLSCAASGFTFSSYSMNWVRQAPGKGLEWVSSISSSSSYIYYADSVKGRFTISRDNAKNSLYLQMNSLRAEDTAVYYCASLSSSSELGYYFDYWGQGTLVTVSS
VL: B4 VL with S2P, S100Y, V108L
notes: full-length IgG
B18: ADI-19493 (antibody, V domains shown)
VH: QVQLQQWGAGLLKPSETLSLTCAVYGGSFSGYYWSWIRQPPGKGLEWIGEINHSGSTNYNPSLKSRVTISVDTSKNQFSLKLSSVTAADTAVYYCARLIENTRVGEYYFDYWGQGTLVTVSS
VL: not shown
notes: full-length IgG
B19: ADI-14366 (antibody, V domains shown)
VH: QVQLVQSGTEVKKPGASVKVSCKASGYTFNMYGVSWVRQAPGQGLEWMGWISAYNGNTNYAQKFQGRVTMTIDTSTTTAYMELRSLRSDDTAMYYCARDFQAEEPLSNWFDPWGQGTLVTVSS
VL: DIVMTQTPSSLSASVGDRVIITCRASQSISRYINWYQKKPGKAPKFLIYAVSSLGSGVPSRFSGSGSGTDFTLTISSLQPEDFATYYCQQSYSTPFTFGPGTKVDIK
notes: full-length IgG; also called Ab 34
B20: ADI-14392 (antibody, V domains shown)
VH: EVQLLESGAEVKKPGSSVKVSCKASGGTFSSYGISWVRQAPGQGLEWMGGIIPIFGTSNYAQKFQGRVTITADESTSTAYMELSSLRSEDTAVYYCALDSSGRARYYAMDVWGQGTTVTVSS
VL: DIQVTQSPATLSLSPGERATLSCRASQSVSSYLAWYQQKPGQAPRLLIYDASNRATGIPARFSGSGSGTDFTLTISSLEPEDFAVYYCQQRNNWPPTFGPGTKVEIK
notes: full-length IgG; also called Ab 59
B21: ADI-25559 (antibody, V domains shown)
VH: B10 VH with V5L, N56S, R100A, I101A, A103K, T105Y
VL: B4 VL with S2P, S100K, V108L
notes: full-length IgG
B22: ADI-25565 (antibody, V domains shown)
VH: B14 VH with R99I, Y100R, C101F, T102D, N103Y, V105S, C106G, Y107S, D108Y
VL: B4 VL with S2P, T104G, V108L
notes: full-length IgG

Target: T1, RSV postfusion F (postF), subtype A (respiratory syncytial virus subtype A, UniProt P03420 26-513)
T1 construct: also called Postfusion subtype A; F deltaFP
Assay: BLI

Row | Binder | binding result
1 | B1 | no binding
2 | B2 | no binding
3 | B3 | no binding
4 | B4 | no binding
5 | B5 | no binding
6 | B6 | no binding
7 | B7 | no binding
8 | B8 | no binding
9 | B9 | no binding
10 | B10 | no binding
11 | B11 | no binding
12 | B12 | no binding
13 | B13 | no binding
14 | B14 | no binding
15 | B15 | no binding
16 | B16 | no binding
17 | B17 | no binding
18 | B18 | no binding
19 | B19 | no binding
20 | B20 | no binding
21 | B21 | no binding
22 | B22 | no binding

Target: T2, RSV prefusion F (preF), subtype B (respiratory syncytial virus subtype B)
T2 construct: also called Prefusion subtype B
Assay: BLI, IgG

Row | Binder | Kd [nM]
23 | B1 | 19.4
24 | B2 | 10.1
25 | B3 | 4.29
26 | B4 | 29.1
27 | B5 | 38.5
28 | B6 | 9.03
29 | B7 | 11.4
30 | B8 | 3.44
31 | B9 | 7.8
32 | B10 | 40
33 | B11 | 37.7
34 | B12 | 9.41
35 | B13 | 35.6
36 | B14 | 28
37 | B15 | 4.91
38 | B16 | 0.461
39 | B17 | 37.7
40 | B18 | 22.6
41 | B19 | 18
42 | B20 | 72.5
43 | B21 | 33.3
44 | B22 | 35.7
